B1: F-box DNA helicase 1 (Homo sapiens), Q8NFZ0 (parent)
chain: MRRFKRKHLTAIDCQHLARSHLAVTQPFGQRWTNRDPNHGLYPKPRTKRGSRGQGSQRCIPEFFLAGKQPCTNDMAKSNSVGQDSCQDSEGDMIFPAESSCALPQEGSAGPGSPGSAPPSRKRSWSSEEESNQATGTSRWDGVSKKAPRHHLSVPCTRPREARQEAEDSTSRLSAESGETDQDAGDVGPDPIPDSYYGLLGTLPCQEALSHICSLPSEVLRHVFAFLPVEDLYWNLSLVCHLWREIISDPLFIPWKKLYHRYLMNEEQAVSKVDGILSNCGIEKESDLCVLNLIRYTATTKCSPSVDPERVLWSLRDHPLLPEAEACVRQHLPDLYAAAGGVNIWALVAAVVLLSSSVNDIQRLLFCLRRPSSTVTMPDVTETLYCIAVLLYAMREKGINISNRIHYNIFYCLYLQENSCTQATKVKEEPSVWPGKKTIQLTHEQQLILNHKMEPLQVVKIMAFAGTGKTSTLVKYAEKWSQSRFLYVTFNKSIAKQAERVFPSNVICKTFHSMAYGHIGRKYQSKKKLNLFKLTPFMVNSVLAEGKGGFIRAKLVCKTLENFFASADEELTIDHVPIWCKNSQGQRVMVEQSEKLNGVLEASRLWDNMRKLGECTEEAHQMTHDGYLKLWQLSKPSLASFDAIFVDEAQDCTPAIMNIVLSQPCGKIFVGDPHQQIYTFRGAVNALFTVPHTHVFYLTQSFRFGVEIAYVGATILDVCKRVRKKTLVGGNHQSGIRGDAKGQVALLSRTNANVFDEAVRVTEGEFPSRIHLIGGIKSFGLDRIIDIWILLQPEEERRKQNLVIKDKFIRRWVHKEGFSGFKRYVTAAEDKELEAKIAVVEKYNIRIPELVQRIEKCHIEDLDFAEYILGTVHKAKGLEFDTVHVLDDFVKVPCARHNLPQLPHFRVESFSEDEWNLLYVAVTRAKKRLIMTKSLENILTLAGEYFLQAELTSNVLKTGVVRCCVGQCNNAIPVDTVLTMKKLPITYSNRKENKGGYLCHSCAEQRIGPLAFLTASPEQVRAMERTVENIVLPRHEALLFLVF

Variants of: B1
Settings: with src_human SRC

effect of a mutation on the interaction	Variant
decreasing interaction	G774R

Variants of: B1
Settings: with src_human SRC
Remark: another data set of the same source

effect of a mutation on the interaction	Variant
disrupting interaction	I1030F

Reference: IntAct's records for PubMed 23954233
